Laboratory results from the Immune Epitope Database (IEDB).
pKd: −log10 of the molar value. Each block holds one sequence with its values, some of them ahead of it.

Legend:
HLA-C*15:02 = assay: IEDB peptide-MHC binding, purified MHC/direct/fluorescence; filed as Kd, often an IC50 or EC50 that approximates it; ≥ and ≤ were set here for values at or beyond the usual limits of such assays; conditions: source organism: Burkholderia mallei NCTC 10229
HLA-B*39:01 = assay: IEDB peptide-MHC binding, purified MHC/competitive/fluorescence; filed as Kd, often an IC50 or EC50 that approximates it; ≥ and ≤ were set here for values at or beyond the usual limits of such assays; conditions: source organism: Burkholderia mallei NCTC 10229
HLA-A*02:19 = assay: as above; conditions: source organism: Burkholderia mallei NCTC 10229
HLA-A*29:02 [1] = assay: as above; conditions: source organism: Burkholderia mallei NCTC 10229
HLA-A*26:01 = assay: as above; conditions: source organism: Burkholderia mallei NCTC 10229
HLA-A*02:12 = assay: as above
HLA-A*80:01 = assay: as above; conditions: source organism: Burkholderia mallei NCTC 10229
HLA-A*02:07 = assay: IEDB peptide-MHC binding, purified MHC/competitive/radioactivity; filed as Kd, often an IC50 or EC50 that approximates it; ≥ and ≤ were set here for values at or beyond the usual limits of such assays; conditions: source organism: Homo sapiens
HLA-B*58:01 [2] = assay: as above; conditions: source organism: Homo sapiens
HLA-B*57:01 = assay: as above; conditions: source organism: Homo sapiens
HLA-A*29:02 [3] = assay: as above; conditions: source organism: Homo sapiens
HLA-A*02:01 [4] = assay: as above; conditions: source organism: Homo sapiens
HLA-B*15:02 = assay: IEDB peptide-MHC binding, purified MHC/competitive/fluorescence; filed as Kd, often an IC50 or EC50 that approximates it; ≥ and ≤ were set here for values at or beyond the usual limits of such assays; conditions: source organism: Homo sapiens
HLA-B*46:01 = assay: as above
HLA-B*40:01 = assay: as above; conditions: source organism: Escherichia coli str. K-12 substr. DH10B
HLA-B*58:01 [5] = assay: as above; conditions: source organism: Escherichia coli str. K-12 substr. DH10B
HLA-B*35:01 = assay: as above; conditions: source organism: Escherichia coli str. K-12 substr. DH10B
HLA-B*08:02 = assay: as above; conditions: source organism: Escherichia coli str. K-12 substr. DH10B
HLA-B*07:02 = assay: as above; conditions: source organism: Escherichia coli str. K-12 substr. DH10B
HLA-A*30:01 = assay: as above; conditions: source organism: Escherichia coli str. K-12 substr. DH10B
HLA-B*27:05 = assay: as above; conditions: source organism: Escherichia coli str. K-12 substr. DH10B
HLA-A*03:01 = assay: as above; conditions: source organism: Escherichia coli str. K-12 substr. DH10B
HLA-A*26:02 = assay: as above; conditions: source organism: Escherichia coli str. K-12 substr. DH10B
HLA-A*02:03 = assay: as above; conditions: source organism: Escherichia coli str. K-12 substr. DH10B
HLA-A*11:01 = assay: as above; conditions: source organism: Escherichia coli str. K-12 substr. DH10B
HLA-B*15:01 = assay: as above; conditions: source organism: Escherichia coli str. K-12 substr. DH10B
HLA-B*48:01 = assay: as above; conditions: source organism: Escherichia coli str. K-12 substr. DH10B
HLA-B*08:03 = assay: as above; conditions: source organism: Escherichia coli str. K-12 substr. DH10B
HLA-A*01:01 = assay: as above; conditions: source organism: Escherichia coli str. K-12 substr. DH10B
HLA-B*18:01 = assay: as above; conditions: source organism: Escherichia coli str. K-12 substr. DH10B
HLA-A*31:01 = assay: as above; conditions: source organism: Escherichia coli str. K-12 substr. DH10B
HLA-A*02:01 [6] = assay: as above; conditions: source organism: Escherichia coli str. K-12 substr. DH10B
HLA-B*14:02 = assay: IEDB peptide-MHC binding, purified MHC/direct/fluorescence; filed as Kd, often an IC50 or EC50 that approximates it; ≥ and ≤ were set here for values at or beyond the usual limits of such assays; conditions: source organism: Homo sapiens
HLA-C*05:01 = assay: as above; conditions: source organism: Entamoeba histolytica HM-1:IMSS
HLA-B*51:01 = assay: IEDB peptide-MHC binding, purified MHC/competitive/fluorescence; filed as Kd, often an IC50 or EC50 that approximates it; ≥ and ≤ were set here for values at or beyond the usual limits of such assays; conditions: source organism: Entamoeba histolytica HM-1:IMSS
HLA-B*15:42 = assay: as above; conditions: source organism: Entamoeba histolytica HM-1:IMSS
HLA-A*32:15 = assay: as above; conditions: source organism: Entamoeba histolytica HM-1:IMSS
HLA-B*83:01 = assay: as above; conditions: source organism: Entamoeba histolytica HM-1:IMSS
HLA-B*45:06 = assay: as above; conditions: source organism: Entamoeba histolytica HM-1:IMSS
HLA-B*40:13 = assay: as above; conditions: source organism: Entamoeba histolytica HM-1:IMSS
HLA-A*68:23 = assay: as above; conditions: source organism: Entamoeba histolytica HM-1:IMSS
[7] = source organism: Escherichia coli str. K-12 substr. DH10B

Sequence: RTFGQPLFF
pKd (HLA-C*15:02): 8.30
pKd (HLA-B*39:01): ≤ 4.70
pKd (HLA-A*02:19): ≤ 4.70
pKd (HLA-A*29:02 [1]): 9.70
pKd (HLA-A*26:01): ≤ 4.70
pKd (HLA-A*02:12; source organism: Burkholderia mallei NCTC 10229): ≤ 4.70
pKd (HLA-A*80:01): 6.38

pKd (HLA-A*02:07): ≤ 4.22
pKd (HLA-B*58:01 [2]): ≤ 4.32
pKd (HLA-B*57:01): ≤ 4.34
pKd (HLA-A*29:02 [3]): 5.54
pKd (HLA-A*02:01 [4]): ≤ 4.11
pKd (HLA-B*15:02): 7.86
pKd (HLA-B*46:01; source organism: Homo sapiens): 7.29
Sequence: SIRDGVRAY

pKd (HLA-B*40:01): ≤ 4.70
pKd (HLA-B*58:01 [5]): 5.65
pKd (HLA-B*35:01): ≤ 4.70
pKd (HLA-B*08:02): ≤ 4.70
pKd (HLA-B*07:02): ≤ 4.70
pKd (HLA-A*30:01): 7.12
pKd (HLA-B*27:05): ≤ 4.70
pKd (HLA-A*03:01): 5.97
pKd (HLA-A*26:02): ≤ 4.70
pKd (HLA-A*02:03): ≤ 4.70
pKd (HLA-A*11:01): 6.72
pKd (HLA-A*02:12; [7]): 7.16
pKd (HLA-B*15:01): ≤ 4.70
pKd (HLA-B*48:01): ≤ 4.70
pKd (HLA-B*08:03): ≤ 4.70
pKd (HLA-A*01:01): 5.98
pKd (HLA-B*18:01): ≤ 4.70
pKd (HLA-A*31:01): 5.32
pKd (HLA-B*46:01; [7]): ≤ 4.70
pKd (HLA-A*02:01 [6]): 6.44
Sequence: QVIFKCVPK

pKd (HLA-B*14:02): 6.79
Sequence: DELNHASI

Sequence: MPYHGYHII
pKd (HLA-C*05:01): ≤ 4.70
pKd (HLA-B*51:01): 7.04
pKd (HLA-B*15:42): ≤ 5.30
pKd (HLA-A*32:15): 6.87
pKd (HLA-B*83:01): 7.43
pKd (HLA-B*45:06): ≤ 5.30
pKd (HLA-B*40:13): 7.36
pKd (HLA-A*68:23): 7.02
